Paper PMC3577912, “A Novel Role for Arabidopsis CBL1 in Affecting Plant Responses to Glucose and Gibberellin during Germination and Seedling Development” (PLoS ONE, 2013)

Molecular target: T1, His-AKINβ1 fusion protein (Arabidopsis thaliana, UniProt Q84VQ1 1-283)
T1 construct: AKINβ1, β regulatory subunit of SnRK1, Arabidopsis thaliana, AT5G21170; also called pET-AKINβ1; His-tagged AKINβ1
T1 sequence (looked up): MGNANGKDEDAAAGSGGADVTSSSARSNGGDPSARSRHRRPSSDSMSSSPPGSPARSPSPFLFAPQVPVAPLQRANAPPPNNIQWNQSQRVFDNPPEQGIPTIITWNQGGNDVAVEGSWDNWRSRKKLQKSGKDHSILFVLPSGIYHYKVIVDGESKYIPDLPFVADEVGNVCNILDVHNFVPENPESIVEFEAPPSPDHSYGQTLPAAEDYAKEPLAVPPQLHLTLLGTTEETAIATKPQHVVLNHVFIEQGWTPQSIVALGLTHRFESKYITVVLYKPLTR
Assay: pull-down; about 5 µg GST-CBL1 immobilised on Glutathione-Sepharose 4B beads, incubated with His-AKINβ1 overnight at 4°C, washed five times with ice-cold PBS, Western blot with anti-His antibody
Settings: both partners purified

B1: GST-CBL1 fusion protein (natural protein)
chain: not shown
notes: Calcineurin B-like protein 1 (CBL1), Arabidopsis thaliana, AT4G17615; also called pGEX-CBL1; glutathione S-transferase (GST)-CBL1; source: E. coli BL21 (DE3), purified (Glutathione Sepharose)
binding result: binds
